Laboratory results reported in paper PMC314469, “Protein Interaction Networks by Proteome Peptide Scanning” (PLoS Biology, 2004).

T1: Boi1 SH3 (BOI1_YEAST), P38041
T1 chain: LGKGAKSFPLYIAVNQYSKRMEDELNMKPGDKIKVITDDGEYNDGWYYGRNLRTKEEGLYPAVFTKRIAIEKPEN

T2: Boi2 SH3 (BOI2_YEAST), P39969
T2 chain: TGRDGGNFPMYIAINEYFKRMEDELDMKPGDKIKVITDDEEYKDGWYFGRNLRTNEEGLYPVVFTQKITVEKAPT

T3: Rvs167 SH3 (RV167_YEAST), P39743
T3 chain: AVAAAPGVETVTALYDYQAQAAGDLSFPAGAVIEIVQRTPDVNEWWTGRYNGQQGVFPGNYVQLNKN

T4: Yfr024 SH3 (LSB3_YEAST), P43603
T4 chain: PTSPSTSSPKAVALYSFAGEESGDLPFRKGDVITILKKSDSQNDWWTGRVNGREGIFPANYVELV

T5: Yhr016c SH3 (YSC84_YEAST), P32793
T5 chain: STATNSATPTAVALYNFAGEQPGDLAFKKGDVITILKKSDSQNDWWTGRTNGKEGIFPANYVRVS


Biological target: T1, Boi1 SH3 (BOI1_YEAST), P38041
Experiment: SPOT array

Row | normalised SPOT signal, Boehringer light units (BLU); mean over the file's lines of this peptide | Binder
1 | 59.6 | EESPVKPLKITQKA [YLL021W 583-596]
2 | 89.1 | EGKPLFPGKDHVHQ [YLR113W 212-225]
3 | 194 | DYNPPPPSRNSPIR [YJL204C 669-682]
4 | 53.2 | EFSPTYPSKLFVPR [YJR110W 189-202]
5 | 76.3 | DVPPQLPTRTKSGE [YOR042W 337-350]
6 | 17.6 | DYLPQHPHRTSSLP [YDR103W 109-122]
7 | 0 | EEKPLLPTRPNKAE [YPR171W 203-216]
8 | 92.9 | EIAPSLPSRNSIPA [YCR088W 471-484]
9 | 24.7 | EDTPDLPQKTGIRK [YJR137C 1229-1242]
10 | 110 | EIAPLIPKKPALRK [YDR080W 597-610]
11 | 98.3 | DVYPHEPAKNGEGS [YER081W 311-324]
12 | 619 | EEHPPLPARRKSEE [YOR042W 80-93]
13 | 70.5 | EAPPAKPSRSDIID [YOR066W 225-238]
14 | 47.4 | DYLPPVPEKNAGKQ [YDR322W 274-287]
15 | 35500 | DYNPTIPPRSKDRP [YOL070C 274-287]
16 | 102 | EAAPQLPSRSSAAP [YCR088W 505-518]
17 | 98 | EFIPPDPTKVTEFE [YNL025C 151-164]
18 | 128 | ESHPELPNKDVKLD [YGL125W 158-171]
19 | 58.8 | EHKPVSPDKIGTFT [YDR443C 81-94]
20 | 122 | DYQPLSPPRELDPD [YAR014C 249-262]
21 | 84 | EEHPSSPGKKQITY [YLR238W 11-24]
22 | 79.1 | EANPDNPKKLDLKA [YER166W 783-796]

Biological target: T2, Boi2 SH3 (BOI2_YEAST), P39969
Experiment: SPOT array

Row | normalised SPOT signal, Boehringer light units (BLU); mean over the file's lines of this peptide | Binder
23 | 40.1 | EESPVKPLKITQKA [YLL021W 583-596]
24 | 11 | EGKPLFPGKDHVHQ [YLR113W 212-225]
25 | 31.1 | DYNPPPPSRNSPIR [YJL204C 669-682]
26 | 33.3 | EFSPTYPSKLFVPR [YJR110W 189-202]
27 | 61.9 | DVPPQLPTRTKSGE [YOR042W 337-350]
28 | 33.4 | DYLPQHPHRTSSLP [YDR103W 109-122]
29 | 54.8 | EEKPLLPTRPNKAE [YPR171W 203-216]
30 | 51.6 | EIAPSLPSRNSIPA [YCR088W 471-484]
31 | 18 | EDTPDLPQKTGIRK [YJR137C 1229-1242]
32 | 90.8 | EIAPLIPKKPALRK [YDR080W 597-610]
33 | 37.8 | DVYPHEPAKNGEGS [YER081W 311-324]
34 | 53.3 | EEHPPLPARRKSEE [YOR042W 80-93]
35 | 54.9 | EAPPAKPSRSDIID [YOR066W 225-238]
36 | 91.7 | DYLPPVPEKNAGKQ [YDR322W 274-287]
37 | 11300 | DYNPTIPPRSKDRP [YOL070C 274-287]
38 | 20.3 | EAAPQLPSRSSAAP [YCR088W 505-518]
39 | 39.5 | EFIPPDPTKVTEFE [YNL025C 151-164]
40 | 22.1 | ESHPELPNKDVKLD [YGL125W 158-171]
41 | 21.4 | EHKPVSPDKIGTFT [YDR443C 81-94]
42 | 8.8 | DYQPLSPPRELDPD [YAR014C 249-262]
43 | 17.6 | EEHPSSPGKKQITY [YLR238W 11-24]
44 | 7.6 | EANPDNPKKLDLKA [YER166W 783-796]

Biological target: T3, Rvs167 SH3 (RV167_YEAST), P39743
Experiment: SPOT array

Row | normalised SPOT signal, Boehringer light units (BLU); mean over the file's lines of this peptide | Binder
45 | 51.1 | EESPVKPLKITQKA [YLL021W 583-596]
46 | 38.5 | EGKPLFPGKDHVHQ [YLR113W 212-225]
47 | 9.9 | DYNPPPPSRNSPIR [YJL204C 669-682]
48 | 69.9 | EFSPTYPSKLFVPR [YJR110W 189-202]
49 | 23600 | DVPPQLPTRTKSGE [YOR042W 337-350]
50 | 109 | DYLPQHPHRTSSLP [YDR103W 109-122]
51 | 6410 | EEKPLLPTRPNKAE [YPR171W 203-216]
52 | 18700 | EIAPSLPSRNSIPA [YCR088W 471-484]
53 | 14.6 | EDTPDLPQKTGIRK [YJR137C 1229-1242]
54 | 80 | EIAPLIPKKPALRK [YDR080W 597-610]
55 | 44.3 | DVYPHEPAKNGEGS [YER081W 311-324]
56 | 26300 | EEHPPLPARRKSEE [YOR042W 80-93]
57 | 31.9 | EAPPAKPSRSDIID [YOR066W 225-238]
58 | 42.3 | DYLPPVPEKNAGKQ [YDR322W 274-287]
59 | 3120 | DYNPTIPPRSKDRP [YOL070C 274-287]
60 | 23100 | EAAPQLPSRSSAAP [YCR088W 505-518]
61 | 16.4 | EFIPPDPTKVTEFE [YNL025C 151-164]
62 | 25.4 | ESHPELPNKDVKLD [YGL125W 158-171]
63 | 59.1 | EHKPVSPDKIGTFT [YDR443C 81-94]
64 | 322 | DYQPLSPPRELDPD [YAR014C 249-262]
65 | 5.7 | EEHPSSPGKKQITY [YLR238W 11-24]
66 | 45.6 | EANPDNPKKLDLKA [YER166W 783-796]

Biological target: T4, Yfr024 SH3 (LSB3_YEAST), P43603
Experiment: SPOT array

Row | normalised SPOT signal, Boehringer light units (BLU); mean over the file's lines of this peptide | Binder
67 | 290 | EESPVKPLKITQKA [YLL021W 583-596]
68 | 5.2 | EGKPLFPGKDHVHQ [YLR113W 212-225]
69 | 874 | DYNPPPPSRNSPIR [YJL204C 669-682]
70 | 796 | EFSPTYPSKLFVPR [YJR110W 189-202]
71 | 27900 | DVPPQLPTRTKSGE [YOR042W 337-350]
72 | 206 | DYLPQHPHRTSSLP [YDR103W 109-122]
73 | 46300 | EEKPLLPTRPNKAE [YPR171W 203-216]
74 | 35400 | EIAPSLPSRNSIPA [YCR088W 471-484]
75 | 5620 | EDTPDLPQKTGIRK [YJR137C 1229-1242]
76 | 5120 | EIAPLIPKKPALRK [YDR080W 597-610]
77 | 125 | DVYPHEPAKNGEGS [YER081W 311-324]
78 | 31200 | EEHPPLPARRKSEE [YOR042W 80-93]
79 | 3400 | EAPPAKPSRSDIID [YOR066W 225-238]
80 | 681 | DYLPPVPEKNAGKQ [YDR322W 274-287]
81 | 6750 | DYNPTIPPRSKDRP [YOL070C 274-287]
82 | 55000 | EAAPQLPSRSSAAP [YCR088W 505-518]
83 | 26.8 | EFIPPDPTKVTEFE [YNL025C 151-164]
84 | 139 | ESHPELPNKDVKLD [YGL125W 158-171]
85 | 60.4 | EHKPVSPDKIGTFT [YDR443C 81-94]
86 | 506 | DYQPLSPPRELDPD [YAR014C 249-262]
87 | 44.3 | EEHPSSPGKKQITY [YLR238W 11-24]
88 | 257 | EANPDNPKKLDLKA [YER166W 783-796]

Biological target: T5, Yhr016c SH3 (YSC84_YEAST), P32793
Experiment: SPOT array

Row | normalised SPOT signal, Boehringer light units (BLU); mean over the file's lines of this peptide | Binder
89 | 51.3 | EESPVKPLKITQKA [YLL021W 583-596]
90 | 91.1 | EGKPLFPGKDHVHQ [YLR113W 212-225]
91 | 323 | DYNPPPPSRNSPIR [YJL204C 669-682]
92 | 143 | EFSPTYPSKLFVPR [YJR110W 189-202]
93 | 73200 | DVPPQLPTRTKSGE [YOR042W 337-350]
94 | 172 | DYLPQHPHRTSSLP [YDR103W 109-122]
95 | 62400 | EEKPLLPTRPNKAE [YPR171W 203-216]
96 | 40900 | EIAPSLPSRNSIPA [YCR088W 471-484]
97 | 100 | EDTPDLPQKTGIRK [YJR137C 1229-1242]
98 | 0 | EIAPLIPKKPALRK [YDR080W 597-610]
99 | 223 | DVYPHEPAKNGEGS [YER081W 311-324]
100 | 72200 | EEHPPLPARRKSEE [YOR042W 80-93]
101 | 2010 | EAPPAKPSRSDIID [YOR066W 225-238]
102 | 198 | DYLPPVPEKNAGKQ [YDR322W 274-287]
103 | 2400 | DYNPTIPPRSKDRP [YOL070C 274-287]
104 | 93000 | EAAPQLPSRSSAAP [YCR088W 505-518]
105 | 53.3 | EFIPPDPTKVTEFE [YNL025C 151-164]
106 | 75.4 | ESHPELPNKDVKLD [YGL125W 158-171]
107 | 181 | EHKPVSPDKIGTFT [YDR443C 81-94]
108 | 313 | DYQPLSPPRELDPD [YAR014C 249-262]
109 | 24.5 | EEHPSSPGKKQITY [YLR238W 11-24]
110 | 247 | EANPDNPKKLDLKA [YER166W 783-796]
